In article PMC8848936 (RNA, 2022):

Biological target: T1, Tsr1–TAP (S. cerevisiae, UniProt Q07381 1-788)
T1 sequence (looked up): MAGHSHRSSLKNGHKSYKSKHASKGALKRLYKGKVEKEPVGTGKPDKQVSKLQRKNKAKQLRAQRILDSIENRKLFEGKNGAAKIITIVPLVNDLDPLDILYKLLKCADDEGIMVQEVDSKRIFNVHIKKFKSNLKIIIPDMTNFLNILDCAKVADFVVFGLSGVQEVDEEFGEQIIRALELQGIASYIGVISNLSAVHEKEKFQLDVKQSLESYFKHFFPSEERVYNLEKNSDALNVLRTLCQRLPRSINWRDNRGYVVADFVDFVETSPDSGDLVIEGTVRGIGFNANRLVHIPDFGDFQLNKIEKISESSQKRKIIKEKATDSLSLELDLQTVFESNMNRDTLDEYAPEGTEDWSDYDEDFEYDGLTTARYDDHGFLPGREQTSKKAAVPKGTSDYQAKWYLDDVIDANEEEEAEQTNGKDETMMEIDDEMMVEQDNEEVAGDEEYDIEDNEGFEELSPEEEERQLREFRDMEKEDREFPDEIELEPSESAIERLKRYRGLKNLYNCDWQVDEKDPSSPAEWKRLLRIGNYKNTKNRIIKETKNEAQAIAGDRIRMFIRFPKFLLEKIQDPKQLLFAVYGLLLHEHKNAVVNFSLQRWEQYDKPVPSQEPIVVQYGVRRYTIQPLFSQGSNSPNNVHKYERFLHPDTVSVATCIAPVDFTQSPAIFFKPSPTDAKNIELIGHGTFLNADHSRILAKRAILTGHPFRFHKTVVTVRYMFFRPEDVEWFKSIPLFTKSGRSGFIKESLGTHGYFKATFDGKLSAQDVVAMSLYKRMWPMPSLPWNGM
Test: co-sedimentation

binding result: binds
B1: recombinant Rio2 (Rio2-HA) (natural protein, yeast, UniProt P40160 1-425, looked up)
chain: MKLDTSHMRYLTTDDFRVLQAVEQGSRSHEVVPTPLIHQISGMRSQSGTNRAISDLAKLSLISKMRNVKYDGYRLTYNGIDYLALKTMLNRDTVYSVGNTIGVGKESDIYKVSDKNGNPRVMKIHRLGRTSFHSVRNNRDYLKKSNQGANWMHLSRLAANKEYQFMSMLYSKGFKVPEPFDNSRHIVVMELIEGYPMRRLRKHKNIPKLYSDLMCFIVDLANSGLIHCDFNEFNIMIKDKLEDENDCGFVVIDFPQCISIQHQDADYYFQRDVDCIRRFFKKKLKYEPKPDSSMLDTEGFGDGYKYAYPDFKRDVKRTDNLDELVQASGFSKKHPGDRGLETAVESMRNAVYNSDDDMSNDEAEEENGEGDYSEEDEYYDSELDNESSEDDSEDAQEEENERIIEALSSGVENLKMDKLGNYILE
